Molecular target: MAb A12A3 (mouse)
Test: SPR; Biacore 3000; MAb (10 ug/ml) captured on a CM-5 chip amine coupled with goat anti-mouse Fc fragment; serially diluted pentamer injected at 30 ul/min for 3.3 min; HBS (10 mM HEPES pH 7.4, 150 mM NaCl); three measurements, mean and standard deviation

Chain of MAb A12A3 (mouse) (heavy, as listed by the source, chain 1 of 2): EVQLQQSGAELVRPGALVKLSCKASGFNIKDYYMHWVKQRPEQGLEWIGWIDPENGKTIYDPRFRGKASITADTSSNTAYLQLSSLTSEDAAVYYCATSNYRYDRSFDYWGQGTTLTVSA
Chain of MAb A12A3 (mouse) (light, as listed by the source, chain 2 of 2): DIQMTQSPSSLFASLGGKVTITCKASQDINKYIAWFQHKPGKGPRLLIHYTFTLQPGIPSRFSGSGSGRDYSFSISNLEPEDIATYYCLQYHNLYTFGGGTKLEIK

Binder	Ka	Kd	koff	kon
HPV58 L1 pentamer R161A (natural protein) EATVYLPPVPVSKVVSTDEYVSRTSIYYYAGSSRLLAVGNPYFSIKSPNNNKKVLVPKVSGLQYRVFRVRLPDPNKFGFPDTSFYNPDTQRLVWACVGLEIGRGQPLGVGVSGHPYLNKFDDTETSNAYPAQPGSDNRECLSMDYKQTQLCLIGCKPPTGEHWGKGVACNNNAAATDCPPLELFNSIIEDGDMVDTGFGCMDFGTLQANKSDVPIDICNSTCKYPDYLKMASEPYGDSLFFFLRREQMFVRHFFNRAGKLGEAVPDDLYIKGSGNTAVIQSSAFFPTPSGSIVTSESQLFNKPYWLQRAQGHNNGICWGNQLFVTVVDTTRSTNMTLCTEVTKEGTYKNDNFKEYVRHVEEYDLQFVFQLCKITLTAEIMTYIHTMDSNILEDWQFGLTPPPSASLQDTYRFVTSQAITCQKTAPPKEKEDPLNKYTFWEVNLKEKFSADLDQFPLGRKFLLQSGLKAKPRLKRSAPTTRAPSTKRKKVKK	994000 M⁻¹	1120 nM	9.98e-06 s⁻¹	10.1 M⁻¹ s⁻¹
HPV58 L1 pentamer Q165A (natural protein) EATVYLPPVPVSKVVSTDEYVSRTSIYYYAGSSRLLAVGNPYFSIKSPNNNKKVLVPKVSGLQYRVFRVRLPDPNKFGFPDTSFYNPDTQRLVWACVGLEIGRGQPLGVGVSGHPYLNKFDDTETSNRYPAAPGSDNRECLSMDYKQTQLCLIGCKPPTGEHWGKGVACNNNAAATDCPPLELFNSIIEDGDMVDTGFGCMDFGTLQANKSDVPIDICNSTCKYPDYLKMASEPYGDSLFFFLRREQMFVRHFFNRAGKLGEAVPDDLYIKGSGNTAVIQSSAFFPTPSGSIVTSESQLFNKPYWLQRAQGHNNGICWGNQLFVTVVDTTRSTNMTLCTEVTKEGTYKNDNFKEYVRHVEEYDLQFVFQLCKITLTAEIMTYIHTMDSNILEDWQFGLTPPPSASLQDTYRFVTSQAITCQKTAPPKEKEDPLNKYTFWEVNLKEKFSADLDQFPLGRKFLLQSGLKAKPRLKRSAPTTRAPSTKRKKVKK	7.28e+07 M⁻¹	13.8 nM	0.00228 s⁻¹	167000 M⁻¹ s⁻¹
HPV58 L1 pentamer S168A (natural protein) EATVYLPPVPVSKVVSTDEYVSRTSIYYYAGSSRLLAVGNPYFSIKSPNNNKKVLVPKVSGLQYRVFRVRLPDPNKFGFPDTSFYNPDTQRLVWACVGLEIGRGQPLGVGVSGHPYLNKFDDTETSNRYPAQPGADNRECLSMDYKQTQLCLIGCKPPTGEHWGKGVACNNNAAATDCPPLELFNSIIEDGDMVDTGFGCMDFGTLQANKSDVPIDICNSTCKYPDYLKMASEPYGDSLFFFLRREQMFVRHFFNRAGKLGEAVPDDLYIKGSGNTAVIQSSAFFPTPSGSIVTSESQLFNKPYWLQRAQGHNNGICWGNQLFVTVVDTTRSTNMTLCTEVTKEGTYKNDNFKEYVRHVEEYDLQFVFQLCKITLTAEIMTYIHTMDSNILEDWQFGLTPPPSASLQDTYRFVTSQAITCQKTAPPKEKEDPLNKYTFWEVNLKEKFSADLDQFPLGRKFLLQSGLKAKPRLKRSAPTTRAPSTKRKKVKK	1.62e+08 M⁻¹	6.28 nM	0.000522 s⁻¹	54300 M⁻¹ s⁻¹
HPV58 L1 pentamer N170A (natural protein) EATVYLPPVPVSKVVSTDEYVSRTSIYYYAGSSRLLAVGNPYFSIKSPNNNKKVLVPKVSGLQYRVFRVRLPDPNKFGFPDTSFYNPDTQRLVWACVGLEIGRGQPLGVGVSGHPYLNKFDDTETSNRYPAQPGSDARECLSMDYKQTQLCLIGCKPPTGEHWGKGVACNNNAAATDCPPLELFNSIIEDGDMVDTGFGCMDFGTLQANKSDVPIDICNSTCKYPDYLKMASEPYGDSLFFFLRREQMFVRHFFNRAGKLGEAVPDDLYIKGSGNTAVIQSSAFFPTPSGSIVTSESQLFNKPYWLQRAQGHNNGICWGNQLFVTVVDTTRSTNMTLCTEVTKEGTYKNDNFKEYVRHVEEYDLQFVFQLCKITLTAEIMTYIHTMDSNILEDWQFGLTPPPSASLQDTYRFVTSQAITCQKTAPPKEKEDPLNKYTFWEVNLKEKFSADLDQFPLGRKFLLQSGLKAKPRLKRSAPTTRAPSTKRKKVKK	1.53e+08 M⁻¹	6.52 nM	0.000644 s⁻¹	98400 M⁻¹ s⁻¹
HPV58 L1 pentamer N308A (natural protein) EATVYLPPVPVSKVVSTDEYVSRTSIYYYAGSSRLLAVGNPYFSIKSPNNNKKVLVPKVSGLQYRVFRVRLPDPNKFGFPDTSFYNPDTQRLVWACVGLEIGRGQPLGVGVSGHPYLNKFDDTETSNRYPAQPGSDNRECLSMDYKQTQLCLIGCKPPTGEHWGKGVACNNNAAATDCPPLELFNSIIEDGDMVDTGFGCMDFGTLQANKSDVPIDICNSTCKYPDYLKMASEPYGDSLFFFLRREQMFVRHFFNRAGKLGEAVPDDLYIKGSGATAVIQSSAFFPTPSGSIVTSESQLFNKPYWLQRAQGHNNGICWGNQLFVTVVDTTRSTNMTLCTEVTKEGTYKNDNFKEYVRHVEEYDLQFVFQLCKITLTAEIMTYIHTMDSNILEDWQFGLTPPPSASLQDTYRFVTSQAITCQKTAPPKEKEDPLNKYTFWEVNLKEKFSADLDQFPLGRKFLLQSGLKAKPRLKRSAPTTRAPSTKRKKVKK	8.99e+06 M⁻¹	112 nM	0.0272 s⁻¹	243000 M⁻¹ s⁻¹
HPV58 L1 pentamer D154A (natural protein) EATVYLPPVPVSKVVSTDEYVSRTSIYYYAGSSRLLAVGNPYFSIKSPNNNKKVLVPKVSGLQYRVFRVRLPDPNKFGFPDTSFYNPDTQRLVWACVGLEIGRGQPLGVGVSGHPYLNKFADTETSNRYPAQPGSDNRECLSMDYKQTQLCLIGCKPPTGEHWGKGVACNNNAAATDCPPLELFNSIIEDGDMVDTGFGCMDFGTLQANKSDVPIDICNSTCKYPDYLKMASEPYGDSLFFFLRREQMFVRHFFNRAGKLGEAVPDDLYIKGSGNTAVIQSSAFFPTPSGSIVTSESQLFNKPYWLQRAQGHNNGICWGNQLFVTVVDTTRSTNMTLCTEVTKEGTYKNDNFKEYVRHVEEYDLQFVFQLCKITLTAEIMTYIHTMDSNILEDWQFGLTPPPSASLQDTYRFVTSQAITCQKTAPPKEKEDPLNKYTFWEVNLKEKFSADLDQFPLGRKFLLQSGLKAKPRLKRSAPTTRAPSTKRKKVKK	4.18e+06 M⁻¹	240 nM	0.102 s⁻¹	426000 M⁻¹ s⁻¹
